Results as given in publication PMC12075686, “Structural basis of phosphorylation-independent nuclear import of CIRBP by TNPO3” (Nature Communications, 2025).
Where a chain is given by its changes, count along the chain named. Values joined by “and” are separate entries in the source; they are usually repeats but may differ in a detail not shown here. Equal entries are not always repeated. Non-standard residues stand in square brackets, D forms with d. Residues, ends and D or L forms follow the SMILES beside them. No end group written: not given here. pS = N[C@@H](COP(=O)(O)O)C(=O)O

Legend:
[1] = target: Transportin 3 (TNPO3), full-length wild type (human) (UniProt Q9Y5L0); experiment: ITC; 100 µM ligand in the syringe injected (28 x 10 µL) into 10 µM TNPO3 (WT or C511A) in the cell; 25 °C; 50 mM Tris-HCl pH 7.5, 150 mM NaCl, 2 mM TCEP, 0.04% NaN3
[2] = target: CPSF6 RS-NLS (Homo sapiens) (UniProt Q16630); experiment: FP; details: cited from earlier work
Sequence of CPSF6 RS-NLS (Homo sapiens) (Q16630 490-551): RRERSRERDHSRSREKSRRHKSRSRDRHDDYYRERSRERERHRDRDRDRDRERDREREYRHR

[3] = target: SRSF1 RS-NLS (Homo sapiens) (UniProt Q07955); experiment: FP; details: cited from earlier work
Sequence of SRSF1 RS-NLS (Homo sapiens) (Q07955 198-227): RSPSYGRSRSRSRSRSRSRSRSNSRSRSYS

TNPO3 WT = target: T1, TNPO3 WT (Homo sapiens, UniProt Q9Y5L0); experiment: ITC, ligand titrated into TNPO3 WT; assay type: binding; details: for ΔS: ITC, TNPO3 WT
T1 sequence (Q9Y5L0 1-923): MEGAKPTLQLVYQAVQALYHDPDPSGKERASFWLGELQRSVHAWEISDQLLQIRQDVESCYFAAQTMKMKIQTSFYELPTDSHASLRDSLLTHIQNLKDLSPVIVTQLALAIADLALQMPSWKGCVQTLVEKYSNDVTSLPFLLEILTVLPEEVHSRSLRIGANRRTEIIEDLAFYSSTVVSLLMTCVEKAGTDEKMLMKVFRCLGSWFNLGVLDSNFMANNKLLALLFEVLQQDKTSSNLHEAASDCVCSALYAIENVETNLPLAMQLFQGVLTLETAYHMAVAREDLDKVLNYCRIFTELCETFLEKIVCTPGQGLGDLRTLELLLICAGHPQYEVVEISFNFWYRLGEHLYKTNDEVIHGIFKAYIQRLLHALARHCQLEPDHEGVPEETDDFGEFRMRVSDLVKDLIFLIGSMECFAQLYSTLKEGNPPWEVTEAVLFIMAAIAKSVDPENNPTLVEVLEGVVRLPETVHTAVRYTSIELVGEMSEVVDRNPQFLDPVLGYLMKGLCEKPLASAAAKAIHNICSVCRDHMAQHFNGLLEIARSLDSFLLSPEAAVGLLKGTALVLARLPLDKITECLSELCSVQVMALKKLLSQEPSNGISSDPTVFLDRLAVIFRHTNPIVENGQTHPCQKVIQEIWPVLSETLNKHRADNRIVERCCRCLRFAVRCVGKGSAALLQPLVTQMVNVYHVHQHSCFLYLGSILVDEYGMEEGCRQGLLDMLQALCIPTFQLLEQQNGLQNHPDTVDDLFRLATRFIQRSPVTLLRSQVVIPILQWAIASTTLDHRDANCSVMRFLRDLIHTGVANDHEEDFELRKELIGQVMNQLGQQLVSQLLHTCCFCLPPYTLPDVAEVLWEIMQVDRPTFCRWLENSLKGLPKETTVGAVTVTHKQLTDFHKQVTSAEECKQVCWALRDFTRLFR
Procedure: ITC has been performed by a Malvern Microcal VP-ITC at 25 °C for all binding studies. Samples have been dissolved in Tris buffer containing 50 mM Tris–HCl, 150 mM NaCl, 2 mM TCEP, and 0.04% NaN3 at pH 7.5. Binding studies of CIRBP^RSY and SRSF1^RS were performed with TNPO3 WT, and studies of CIRBP (157–172) and its mutants/phosphorylations were performed with TNPO3 C511A, respectively. Injection has been carried out by a syringe containing ligand solution of 100 μM, which adds ligand step-wise into the cell containing 10 μM TNPO3 during 28 injections of 10 μL each. Data analysis, curve fitting, and calculation of Kd, ΔH, and ΔS have been carried out using Origin-based 7.0 software provided by the manufacturer. All replicated ITC data are shown in Supplementary Fig. 6 and Supplementary Table 1.

TNPO3 = experiment: NMR binding studies with TNPO3 (1H-15N HSQC, 1H-13C HMQC, 1H 1D, STD); parameters: species or system human; details: 100 µM [IM-methyl 13C] labeled TNPO3, one stoichiometric equivalent of ligand, 298 K, pH 6.7
Procedure: All NMR studies for TNPO3 were carried out using the wild type protein. Protein samples for ^1H-^13C HMQC were prepared at a concentration of 100 μM and equilibrated in a buffer containing 50 mM Tris–HCl, pH 6.7, 150 mM NaCl, 2 mM TCEP and 10% D2O. Spectral acquisitions for TNPO3 free and in complex with CIRBP^RSY and SRSF1^RS, respectively were performed at 298 K on a 700 MHz Bruker Avance III NMR spectrometer equipped with a TCI triple-resonance cryoprobe. The pulse program was sfhmqcf2gpph and the spectra were recorded with 32 scans, interscan delay of 1 s, 160 points in F1, 1024 points in F2, 5283.879 Hz spectral width in F1, and 11,160.714 Hz spectral width in F2. Spectra were processed using Topspin 4.1.3.
Spectral acquisitions for TNPO3 free and in complex with mCIRBP^RSY, pCIRBP^RSY, and pSRSF1^RS, respectively, were performed at 298 K on a 600 MHz Bruker Avance Neo NMR spectrometer equipped with a TXI 600S3 probehead. The pulse program was hmqcgpphwg and the spectra were recorded with 64 scans, interscan delay of 1 s, 200 points in F1, 1024 points in F2, 4545.455 Hz spectral width in F1, and 7812.500 Hz spectral width in F2. Spectra were processed using Topspin 4.3.0.
For ^1H-^15N HSQC spectra, protein samples were equilibrated in a buffer containing 50 mM Tris–HCl, pH 6.7, 150 mM NaCl, 2 mM TCEP, 0.04% NaN3, and 10% D2O (with additional 20 mM MgCl2 for CIRBP phosphorylation kinetics). Data were recorded at 298 K on the 600 MHz Bruker Avance Neo NMR spectrometer equipped with a TXI 600S3 probehead. The pulse program was hsqcetfpf3gpsi and was recorded with 8-16 scans, interscan delay of 1 s, 128 points in F1, 1024 points in F2, 1949.318 Hz spectral width in F1, and 9615.385 Hz spectral width in F2. Spectra were processed using Topspin 4.3.0.

[4] = target: T2, Transportin 3 (TNPO3), full-length wild type (human, UniProt Q9Y5L0 1-923); experiment: NMR titration; 1H NMR spectra of 50 µM peptide free and with a stoichiometric amount (50 µM) of TNPO3 WT; line broadening of peptide signals; details: both partners purified
T2 construct: Transportin 3 (TNPO3), human, full-length wild type; For the NMR experiments made 15N-labelled with 13C-methyl labelling of isoleucine and methionine side chains ([IM-methyl 13C]); Vector pETM11-His6-protein A with a TEV site downstream of the protein A tag; also called TNPO3 WT; TNPO3 FL WT; source: E. coli BL21-(DE3) Star, purified (Ni-NTA, TEV cleavage, second Ni-NTA, SEC Superdex 200); not …
T2 sequence (looked up): T1 sequence (Q9Y5L0 1-923)

[5] = target: T3, Transportin 3 (TNPO3), full-length wild type (human, UniProt Q9Y5L0 1-923); experiment: ITC; phosphorylated, rep2
T3 chain: T1 sequence (Q9Y5L0 1-923)

[6] = target: T2, Transportin 3 (TNPO3), full-length wild …; experiment: ITC; 100 µM ligand in the syringe injected (28 x 10 µL) into 10 µM TNPO3 (WT or C511A) in the cell; 25 °C; 50 mM Tris-HCl pH 7.5, 150 mM NaCl, 2 mM TCEP, 0.04% NaN3; details: both partners purified
[7] = target: T3, Transportin 3 (TNPO3), full-length wild …; experiment: ITC; phosphorylated
[8] = target: T4, Transportin 3 (TNPO3) C511A mutant (human, UniProt Q9Y5L0 1-923, C511A); experiment: ITC
T4 sequence: T1 sequence (Q9Y5L0 1-923) with C511A

[9] = target: Transportin 3 (TNPO3) C511A mutant (human) (UniProt Q9Y5L0); experiment: ITC; 100 µM ligand in the syringe injected (28 x 10 µL) into 10 µM TNPO3 (WT or C511A) in the cell; 25 °C; 50 mM Tris-HCl pH 7.5, 150 mM NaCl, 2 mM TCEP, 0.04% NaN3
Sequence of Transportin 3 (TNPO3) C511A mutant (human) (Q9Y5L0 whole entry C511A): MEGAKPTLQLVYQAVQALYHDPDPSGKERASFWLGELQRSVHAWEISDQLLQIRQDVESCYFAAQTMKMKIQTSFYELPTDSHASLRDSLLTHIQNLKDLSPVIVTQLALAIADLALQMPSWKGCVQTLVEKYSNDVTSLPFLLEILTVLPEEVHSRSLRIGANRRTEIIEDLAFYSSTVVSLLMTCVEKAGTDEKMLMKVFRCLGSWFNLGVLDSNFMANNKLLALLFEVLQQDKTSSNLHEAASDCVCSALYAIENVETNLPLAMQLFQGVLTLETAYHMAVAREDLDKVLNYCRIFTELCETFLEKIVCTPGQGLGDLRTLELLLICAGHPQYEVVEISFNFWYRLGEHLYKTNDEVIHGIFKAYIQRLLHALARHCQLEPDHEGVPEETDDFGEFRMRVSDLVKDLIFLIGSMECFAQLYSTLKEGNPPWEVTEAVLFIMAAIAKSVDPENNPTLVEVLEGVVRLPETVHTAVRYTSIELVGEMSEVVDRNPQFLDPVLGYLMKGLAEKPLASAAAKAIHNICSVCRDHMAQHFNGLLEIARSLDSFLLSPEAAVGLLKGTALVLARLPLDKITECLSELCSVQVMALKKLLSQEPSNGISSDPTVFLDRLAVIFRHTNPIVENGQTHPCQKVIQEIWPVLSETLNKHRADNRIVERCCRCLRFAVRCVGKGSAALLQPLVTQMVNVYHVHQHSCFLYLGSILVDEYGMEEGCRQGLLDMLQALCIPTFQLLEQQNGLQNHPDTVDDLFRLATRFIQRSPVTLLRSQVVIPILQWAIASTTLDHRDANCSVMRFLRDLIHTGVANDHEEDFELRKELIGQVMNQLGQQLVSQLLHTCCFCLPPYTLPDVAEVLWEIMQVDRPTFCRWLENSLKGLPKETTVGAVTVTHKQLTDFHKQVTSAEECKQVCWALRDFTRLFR

[10] = target: T4, Transportin 3 (TNPO3) C511A mutant; experiment: ITC; remark: listed apart in the source
[11] = target: T4, Transportin 3 (TNPO3) C511A mutant; experiment: ITC; rep2

SR/RS-NLS of SRSF1, residues 195-211, phosphorylated in vitro by SRPK1 (from UniProt Q07955 195-211) (domain or fragment)
Kd [1]: 2420 nM

TNPO3 (from UniProt Q9Y5L0)
Kd [2]: 3.4 µM
Kd [3]: 1300 nM

C[C@H](NC(=O)[C@H](Cc1ccc(O)cc1)NC(=O)[C@H](CO)NC(=O)[C@H](CC(=O)O)NC(=O)[C@H](Cc1ccc(O)cc1)NC(=O)[C@H](CO)NC(=O)[C@H](CC(=O)O)NC(=O)[C@H](CCCNC(=N)N)NC(=O)[C@H](Cc1ccc(O)cc1)NC(=O)[C@H](CO)NC(=O)CNC(=O)CNC(=O)[C@H](CO)NC(=O)[C@H](CO)NC(=O)[C@H](CCCNC(=N)N)NC(=O)[C@H](CC(=O)O)NC(=O)[C@H](COP(=O)(O)O)NC(=O)[C@H](Cc1ccc(O)cc1)NC(=O)CNC(=O)CNC(=O)[C@H](COP(=O)(O)O)NC(=O)[C@H](CCC(N)=O)NC(=O)[C@H](COP(=O)(O)O)NC(=O)[C@H](CCCNC(=N)N)NC(=O)[C@H](CO)NC(=O)[C@H](CO)NC(=O)[C@H](Cc1ccc(O)cc1)NC(=O)[C@H](Cc1ccc(O)cc1)NC(=O)[C@H](CC(=O)O)NC(=O)[C@H](CCCNC(=N)N)NC(=O)[C@H](CO)NC(=O)CN)C(=O)N[C@H](C(=O)N[C@@H](Cc1c[nH]cn1)C(=O)N[C@@H](CC(N)=O)C(=O)N[C@@H](CCC(=O)O)C(=O)O)[C@@H](C)O [pCIRBP^RSY] (H-GSRDYYSSR[pS]Q[pS]GGY[pS]DRSSGGSYRDSYDSYATHNE-OH)
decrease of TNPO3 binding affinity upon SRPK1 phosphorylation (TNPO3 WT; ITC Kd 0.61 ± 0.10 versus 5.99 ± 0.96 µM): ten-fold
ΔS (TNPO3 WT; replicate 1 (rep1)): –112 cal/mol/deg
ΔS (TNPO3 WT; replicate 2 (rep2)): –50.6 cal/mol/deg
chemical shift perturbations of TNPO3 methyl groups upon ligand addition (1H,13C HMQC) (TNPO3): shifted to comparable end points

B1: RBMX (276-291) synthetic peptide (peptide, UniProt P38159 276-291, looked up)
peptide: PSGGSYRDSYESYGNS
notes: also called RBMX^RSY (276–291); source: synthetic peptide (Peptide Specialty Laboratories GmbH)
binding result [4]: binds

B2: Phosphorylated RSY region of CIRBP (138-172), phosphorylated in vitro by SRPK1 (domain or fragment, human, UniProt Q14011 138-172, looked up)
chain: SRDYYSSR[pS]Q[pS]GGY[pS]DRSSGGSYRDSYDSYATHNE
notes: also called pCIRBP^RSY; phosphorylated CIRBP^RSY; source: E. coli BL21-(DE3) Star, purified; phosphorylated in vitro with recombinant SRPK1 and ATP overnight, isolated by SEC (Superdex 30 Increase); not shown: His6, N-terminal, cleaved; protein A, N-terminal, cleaved
Kd [5]: 2540 nM
Kd [6]: 5.99 µM
Kd [7]: 2540 nM

B3: P5CS (3-20) synthetic peptide (peptide, UniProt P54886 3-20, looked up)
peptide: SQVYRCGFQPFNQHLLPW
notes: Delta-1-pyrroline-5-carboxylate synthase (P5CS), human, residues 3-20; also called P5CS^RSY (3–20); delta-1-pyrroline-5-carboxylate synthase; source: synthetic peptide (Peptide Specialty Laboratories GmbH)
binding result [4]: binds

B4: CIRBP (157-172) synthetic peptide, wild type (peptide)
peptide: GGSYRDSYDSYATHNE
notes: also called mCIRBP^RSY; source: synthetic peptide (Peptide Specialty Laboratories GmbH)
binding result [4]: binds
Kd [8]: 1180 nM
Kd [9]: 5.78 µM
Kd [10]: 6.2 µM and 4.24 µM
Kd [11]: 6.2 µM

B5: RBM39 (86-101) synthetic peptide (peptide, UniProt Q14498 86-101, looked up)
peptide: SRDRRFRGRYRSPYSG
notes: also called RBM39^RSY (86–101); source: synthetic peptide (Peptide Specialty Laboratories GmbH)
binding result [4]: binds
